The target in the experiment is T1, Glypican-3 (UniProt P51654 25-559, limits assumed).
T1 construct: also called GPC3
In words: Biacore (SPR). (SPR reads the build-up and loss of mass on a sensor chip optically.)

B1: Antibody C (antibody, human IgG1, kappa, V domains shown)
VH: EVQLVQSGAEVKKPGESLKISCKGSGYSFTRYWIAWVRQMPGKGLEWMGIIFPGDSHTGYSPSFQGQVTISADRSISTAYLQWSSLKASDTAMYYCARTREGYFDYWGQGTLVTVSS
VL: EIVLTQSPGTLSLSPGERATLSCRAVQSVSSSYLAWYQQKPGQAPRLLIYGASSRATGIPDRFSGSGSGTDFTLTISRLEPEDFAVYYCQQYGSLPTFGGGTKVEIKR
notes: Variable-region variant of GPC3.1, IgG1/kappa; also called variant antibody C
What is called Kd is the equilibrium constant for the complex coming apart. The low end stands for tighter binding, the high end for weaker binding. For orientation: koff means the first-order rate constant of dissociation. Low values mean slow dissociation, high ones fast dissociation. A word on the kon: it is a measure of how fast the partners come together. A lower kon goes with slower complex formation. With B1, binding was characterised by a dissociation constant (Kd) of 0.9 nM, the koff is 0.0016 s⁻¹ and the kon was found to be 1.7e+06 M⁻¹ s⁻¹.

B2: Antibody A (antibody, human IgG1, kappa, V domains shown)
VH: EVQLVQSGAEVKKPGESLKISCKGSGYSFTSYWIAWVRQMPGKGLEWMGIIFPGDSHTGYSPSFQGQVTISADRSIRTAYLQWSSLKASDTAMYYCARTRQGYFDYWGQGTLVTVSS
VL: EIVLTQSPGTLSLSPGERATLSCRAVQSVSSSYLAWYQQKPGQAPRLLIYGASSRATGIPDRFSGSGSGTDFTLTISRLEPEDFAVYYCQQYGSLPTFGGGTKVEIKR
notes: Variable-region variant of GPC3.1, IgG1/kappa; also called variant antibody A
B2 gave a Kd of 2.7 nM, a koff of 0.0029 s⁻¹ and an on-rate constant (kon) of 1.1e+06 M⁻¹ s⁻¹.

B3: Antibody B (antibody, human IgG1, kappa, V domains shown)
VH: EVQLVQSGAEVKKPGESLKISCKGSGYSFTRYWIAWVRQMPGKGLEWMGIIFPGDSHTGYSPSFRGQVTISADKSISTAYLQWSSLKASDTAMYYCARTREGYFDYWGQGTLVTVSS
VL: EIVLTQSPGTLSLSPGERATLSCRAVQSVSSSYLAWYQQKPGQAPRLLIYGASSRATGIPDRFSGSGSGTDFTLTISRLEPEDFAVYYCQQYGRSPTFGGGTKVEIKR
notes: Variable-region variant of GPC3.1, IgG1/kappa; also called variant antibody B
B3 came in with a Kd of 2.2 nM, an off-rate (koff) of 0.0036 s⁻¹ and a kon of 1.7e+06 M⁻¹ s⁻¹.

These data come from patent US20170326249A1 (Bristol-Myers Squibb, published 2017).
